Measurements: PMC6130882 (PLoS Pathogens, 2018)

What was measured:
[1] = biological target: deglycosylated 92TH023 V1/V2 tag scaffold (HIV-1 92TH023 (subtype A/E)); test: static cell adhesion assay
[2] = biological target: synthetic cyclic 42 amino acid V2 peptide of 92TH023 gp120 (HIV-1 92TH023 (subtype A/E)); test: static cell adhesion assay; RPMI8866 cells on immobilised MAdCAM or cV2 92TH023 in buffer with a high concentration of MgCl2
[3] = biological target: recombinant A244 gp120 (subtype A/E, GSID) (HIV-1 A244 (subtype A/E)); test: SPR
[4] = biological target: recombinant SIVmac766 gp120 (SIVmac766); test: SPR
[5] = biological target: synthetic cyclic 42 amino acid V2 peptide of 92TH023 gp120 (HIV-1 92TH023 (subtype A/E)); test: SPR
[6] = biological target: T1, recombinant soluble α4β7 heterodimer (human, UniProt P13612 35-977; P26010 20-723, disulfide bond joining the acid-base clasp | disulfide bond joining the acid-base clasp); test: SPR; details: both partners purified
T1 construct: also called integrin α4β7; not shown: acid coiled-coil clasp peptide, C-terminal, kept; base coiled-coil clasp peptide, C-terminal, kept

Molecule: integrin α4β7 expressed on the surface of RPMI8866 cells (from UniProt P13612 34-1032; P26010 20-798) (receptor)
- fold adhesion against deglycosylated 92TH023 V1/V2 1FD6 [1]: 5 fold
- fold reduction of adhesion in MgCl2 against MnCl2 [2]: 2.5 fold

Molecule: recombinant soluble α4β7 heterodimer (from UniProt P13612 35-977; P26010 20-723) (complex)
- Kd [3]: 7.14 nM
- Kd [4]: 104 nM
- Kd [5]: 1.15 nM

Molecule: soluble α4β1 (from UniProt P13612 35-977; P05556 21-728) (complex)
- Kd [5]: 9710 nM

B1: MAdCAM-Ig fusion protein (Fc fusion, human, UniProt Q13477 19-317, looked up)
chain: QSLQVKPLQVEPPEPVVAVALGASRQLTCRLACADRGASVQWRGLDTSLGAVQSDTGRSVLTVRNASLSAAGTRVCVGSCGGRTFQHTVQLLVYAFPDQLTVSPAALVPGDPEVACTAHKVTPVDPNALSFSLLVGGQELEGAQALGPEVQEEEEEPQGDEDVLFRVTERWRLPPLGTPVPPALYCQATMRLPGLELSHRQAIPVLHSPTSPEPPDTTSPESPDTTSPESPDTTSQEPPDTTSPEPPDKTSPEPAPQQGSTHTPRSPGSTRTRRPEISQAGPTQGEVIPTGSSKPAGDQ
notes: also called Hu-MAdCAM-Ig; MAdCAM-1
- Kd [6]: 0.597 nM
